# Test results: the supplement of paper PMC9170038
# Tested on: MS2 coat protein
# Assay: apparent KD of MS2 coat protein; higher = weaker reporter binding
# Details: Eterna round: R107; input ligand: arginine 13.2 mM
# Procedure, shortened: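 Titration buffer: 100 mM Tris-HCl pH 7.5, 80 mM KCl, 4 mM MgCl2, without or with constant ligand. Designed RNA switches transcribed on-chip from Illumina sequencing clusters received SNAP-549-labelled MS2 coat protein in twofold steps from 0.7 or 1.5 nM to 3 µM. Apparent KD is the median per design of fits to normalised cluster binding curves.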
row,Sequence,apparent KD of MS2 coat protein
1,AAGAUACUCUGAAGGAGCGGCAUAAAACAUGAGGAUCACCCAUGUGCGCGGGUGUAAUUAUGCCAGGUAGGUCGCAGAGUAUUUA [#03 Same State - Arginine B],168 nM
2,CUAGACUGUGCGGCCGCCACUGGCUCAUCCUGCAUUACAUGAGGAUCACCCAUGUUGCGGCCUCCCAGGACCGGGCAUAGUCUGC [Riinzaa],91 nM

# Same assay, conditions: Eterna round: R107; input ligand: none
row,Sequence,apparent KD of MS2 coat protein
1,CUAUAAGUAACUGAUACCAGUGUACUGACAUGAGGAUCACCCAUGUUGGGUUUUGUUGUACACCCUUGGCAGCAGAAUCUUAUAG [AstrosExyTheB#14],63.8 nM
2,CGUAUGUAGACGGCCGCCACUGGAACCUGAGGAUCACCCAGGUACAGGGUGGGUAACUCGAGAGUCAGGACCGGGUCUACAUACA [Tryp B Ex t3],42 nM
3,AGACUGUCUUCGGACAGUCCGGACAGCCCGCGAGGACCGGUACGGCCGCCACUCGCACGAGGAUCACCCGUGUGAGGCUGUCCGA [Omei Tryp A Exc A v2],13.4 nM
4,GCUAGUGGCAGAAGGAGCGAGGCCCGCGCACAUAACAUGAGGAUCACCCAUGUGGCGAGACCUCAGGUAGGUCGCUGCCACUAGC [EAB NP+V2 #1],11.4 nM
5,AAGAAAACAUGAGCAAAGCUCAUGUGCGAAGGAGCGGCGGAAACGCCAGGUAGGUCGCGCACAUGAGCAUCAGCCAUGUGUAUCA [Omei Arginine B SS A v3],36.7 nM
6,ACAUUUAACUGAAGGAGCGUGAUAUGUACAUGAGGAUCACCCAUGUCUUUCAUGUGAUUUUCACAGGUAGGUCGCAGACUAAUGA [JR_ExcArginiB_Sub003],11.5 nM
7,GAUUGGAUUUGAAGGAGCGUCGAAAAUGGGUAAACAUGAGGAUCACCCAUGUAAAGGGAACGACAGGUAGGUCGCAAAUUUAAUC [AstromonsSSArgB#31],111 nM
8,CUCUCAUGAACAUGAGGAUCACCCAUGUAACGAGGACCGGUACGGCCGCCACUCGAACGUGGAAACCAAUCGAGUGAGGUGGGAG [Tryp A Ex t5b],116 nM
9,CGUACAUGAGGAUCACCCAUGUUACAUGAUACCAGACAUGAAAAUGUCCCUUGGCAGCAUGGCGCUGAUAGGGCGGGAAACCCGA [Zabovresky],19.2 nM
10,GGGAUAUAGGCGGCCGCCACUGAUUUUCAUAUAUAUAUAACAUGAGGAUCACCCAUGUAGAUAUACAGGACCGGGCCUAUAUUUU [aaaD],15.2 nM
11,GUACAUGAGGAUCACCCAUGUAUAGUUGAAGGAGCGACCGGAGGGUCAGGUAGGUCGCAGCACAUGGCGUAAACCCGUGUAUGCC [#1 Exclusion - Arginine A Attempt #24 (Inspired by Pi)],21.7 nM
12,GUUGGUUUGGGAAGGAGCGGGUAUGUUGUCUACUUGAUCCUAACAUGAGGAUCACCCAUGUCCCAGGUAGGUCGCCCAAGCUUUG [12.aE],161 nM
13,ACGAUAGGGCAUGAGGAUCACCCAUGUGAUACCAGCCUGGAAACAGGCCCUUGGCAGCAUUAAUACUCCAAUAACCUAUCGAAUA [TheoAX 17 #MicroSwitchBubble #AlternativeMS2],129 nM
14,CCGGGCCCGGGAGACCGGGCCCGGACUGAAGGAGCGGGAAUAAACCCAGGUAGGUCGCAGAGAUCCACAUGAGGAUCACCCAUGU [!0.U],54.5 nM
15,AAGAUACUCUGAAGGAGCGGCAUAAAACAUGAGGAUCACCCAUGUGCGCGGGUGUAAUUAUGCCAGGUAGGUCGCAGAGUAUUUA [#03 Same State - Arginine B],401 nM

# Same assay, conditions: Eterna round: R107; input ligand: theophylline 20 uM
row,Sequence,apparent KD of MS2 coat protein
1,GAUGAUAUUGCAGAUACCAGACACAUGAGGAUCACCCAUGUCGCUGGGUUACUGGGUCGUGUCCCUUGGCAGCUGCGAUAUCAUC [Belize],89.2 nM
2,CUAUAAGUAACUGAUACCAGUGUACUGACAUGAGGAUCACCCAUGUUGGGUUUUGUUGUACACCCUUGGCAGCAGAAUCUUAUAG [AstrosExyTheB#14],70.3 nM
3,CGUAUGUAGACGGCCGCCACUGGAACCUGAGGAUCACCCAGGUACAGGGUGGGUAACUCGAGAGUCAGGACCGGGUCUACAUACA [Tryp B Ex t3],65.1 nM
4,UAUAUAUAUCACGAACUGUGGUGUAUGUCCCGAGGACCGGUACGGCCGCCACUCGCGUGGUUCCACAUGAGGAUCACCCAUGUUG [XTryp A #7],31.3 nM
5,AGACUGUCUUCGGACAGUCCGGACAGCCCGCGAGGACCGGUACGGCCGCCACUCGCACGAGGAUCACCCGUGUGAGGCUGUCCGA [Omei Tryp A Exc A v2],17.2 nM
6,AGACCCUUCACGGCCGCCACUCAUUUUAAGUAGAGAGAGUACAUGAGGAUCACCCAUGUGAGAGAGAGGACCGGGUGAGAUAUUA [ss-trypB-0],21.4 nM
7,GCUAGUGGCAGAAGGAGCGAGGCCCGCGCACAUAACAUGAGGAUCACCCAUGUGGCGAGACCUCAGGUAGGUCGCUGCCACUAGC [EAB NP+V2 #1],25.8 nM
8,AAGAAAACAUGAGCAAAGCUCAUGUGCGAAGGAGCGGCGGAAACGCCAGGUAGGUCGCGCACAUGAGCAUCAGCCAUGUGUAUCA [Omei Arginine B SS A v3],76.9 nM
9,ACAUGAGGAUCACCCAUGUUGAACUACCAUCGAGGACCGGUACGGCCGCCACUCGCGUUCUCCUUAGCAUCAAGGUCCGCGAAAC [theeternabot_exclusion_MS2_Trp_A_1],15.3 nM
10,ACAUUUAACUGAAGGAGCGUGAUAUGUACAUGAGGAUCACCCAUGUCUUUCAUGUGAUUUUCACAGGUAGGUCGCAGACUAAUGA [JR_ExcArginiB_Sub003],14.2 nM
11,AACAUGAGGAUCACCCAUGUAUUGGGUGAUACCAGCCUGAAUAAUGGCCCUUGGCAGCACCGCGCUAACUUUAUGUCUGCGAAAC [Erterean],456 nM
12,CCUGCGUUUCUUUUCUUUCGCAGGAAUGAUACCAGUAGGGAAACCUACCCUUGGCAGCAUGGGUAACAUGAGGAUCACCCAUGUU [SSThA NP+V+V2 #5 Same Structure],392 nM
13,GAUUGGAUUUGAAGGAGCGUCGAAAAUGGGUAAACAUGAGGAUCACCCAUGUAAAGGGAACGACAGGUAGGUCGCAAAUUUAAUC [AstromonsSSArgB#31],148 nM
14,AUAUCUUCCACGGCCGCCACUGAAUGGUGCCCAAGGUCGAUCGCAGACAUGAGGAUCACCCAUGUCAGGACCGGGUGGUACUACG [theeternabot_exclusion_MS2_Trp_B_23],16.5 nM
15,GGUGGCGUGACGGAUACCAGCCACCACCGAUAGACCACAUGAGGAUCACCCAUGUUGGGUGGCCCUUGGCAGCUGUCGUGCGGCG [#1 Same State - Theophylline B Attempt #17 (HarryS)],409 nM
16,AUAACAGUGUCGGCCGCCACUAGAACACAUGAGGAUCACCCAUGUGGUGGUACCUCCUAAGACGAUAGGACCGGGACCCAUCUAC [theeternabot_exclusion_MS2_Trp_B_12],108 nM
17,AACUGAAGCACCUUAUGCGGCGGCAAAACCCGAGGACCGGUACGGCCGCCACUCGAGUCGCAACAUGAGGAUCACCCAUGUGUAU [theeternabot_exclusion_MS2_Trp_A_30],55.8 nM
18,GGUUACUCUACGGCCGCCACUGAUUAAUUAUAAUCCUGUACAUAAACAUGAGGAUCACCCAUGUACAGGACCGGGUAGUGUAACC [Tryptophan B 10],46.2 nM
